pKd: −log10 of the molar value.
How the values were obtained:
[1] = target: PI4KB (isoform 2, E. coli produced, non-phosphorylated) (human) (UniProt Q9UBF8); assay: HDX-MS
[2] = target: PI4KB phosphorylated at Ser496 (E. coli produced, PKA treated) (human) (UniProt Q9UBF8); assay: HDX-MS

Substance: c10orf76 (untagged, E. coli produced) (from UniProt Q5T2E6 1-689) (natural protein)
- pKd [1]: 7.52
- pKd [2]: 7.07
